Results from US10864269B2, “Therapeutic combinations comprising anti-CD73 antibodies and uses thereof” (MedImmune Limited, priority 2014, dated 2020).
Where a chain is given by its changes, count along the chain named.

T1: native CD73, MDA-MB-231 cells (Homo sapiens, UniProt P21589)
T1 construct: native CD73 expressed on human, murine, and cynomolgus monkey cell lines; endogenous in cells; host or cells: MDA-MB-231
T1 sequence (P21589 27-549): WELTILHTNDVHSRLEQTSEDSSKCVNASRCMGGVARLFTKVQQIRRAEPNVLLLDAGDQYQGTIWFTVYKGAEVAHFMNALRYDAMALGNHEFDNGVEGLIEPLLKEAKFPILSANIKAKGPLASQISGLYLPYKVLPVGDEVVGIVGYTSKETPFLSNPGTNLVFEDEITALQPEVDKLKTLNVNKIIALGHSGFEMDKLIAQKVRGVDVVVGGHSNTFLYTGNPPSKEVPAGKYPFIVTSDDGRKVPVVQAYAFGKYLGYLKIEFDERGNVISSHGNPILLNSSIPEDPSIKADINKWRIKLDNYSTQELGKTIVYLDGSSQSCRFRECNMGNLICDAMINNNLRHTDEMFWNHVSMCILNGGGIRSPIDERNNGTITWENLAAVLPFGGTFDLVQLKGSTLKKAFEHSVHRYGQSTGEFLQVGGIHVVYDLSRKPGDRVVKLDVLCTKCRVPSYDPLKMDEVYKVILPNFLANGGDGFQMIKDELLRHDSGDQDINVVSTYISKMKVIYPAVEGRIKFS

T2: huCD73 (Homo sapiens, UniProt P21589)
T2 sequence (P21589 27-549): T1 sequence (P21589 27-549)

T3: murine CD73 (Mus musculus, UniProt Q61503)
T3 sequence (Q61503 29-551): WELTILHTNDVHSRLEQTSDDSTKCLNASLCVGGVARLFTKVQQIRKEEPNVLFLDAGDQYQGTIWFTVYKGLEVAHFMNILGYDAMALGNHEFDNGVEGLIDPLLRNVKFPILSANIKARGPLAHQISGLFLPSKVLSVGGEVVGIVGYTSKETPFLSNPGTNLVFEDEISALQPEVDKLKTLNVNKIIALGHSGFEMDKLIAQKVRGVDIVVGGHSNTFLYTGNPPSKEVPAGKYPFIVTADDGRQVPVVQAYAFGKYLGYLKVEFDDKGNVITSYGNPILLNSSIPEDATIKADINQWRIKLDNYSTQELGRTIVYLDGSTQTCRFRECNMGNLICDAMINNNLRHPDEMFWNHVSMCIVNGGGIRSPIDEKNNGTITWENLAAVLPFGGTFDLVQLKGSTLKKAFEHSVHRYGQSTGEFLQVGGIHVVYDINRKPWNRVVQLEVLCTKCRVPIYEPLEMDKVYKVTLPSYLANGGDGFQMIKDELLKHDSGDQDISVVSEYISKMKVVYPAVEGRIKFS

T4: muCD73 (Mus musculus, UniProt Q61503)
T4 sequence (Q61503 29-551): T3 sequence (Q61503 29-551)

B1: CD730002 2C5: IgG1 with CD730002-derived VL of SEQ ID NO: 88 and VH of SEQ ID NO: 87 (antibody, V domains shown)
VH: EVQLLESGGGLVQPGGSLRLSCAASGFTFSSYAMSWVRQAPGKGLEWVSAISGSGGSTYYADSVKRRFTISRDNSKNTLYLQMNSLRAEDTAVYYCARDKGYYWYMDVWGQGTMVTVSS
VL: QSVLTQPPSVSVSPGQTASITCSGDKVGDKYASWYQQKPGQSPVLVIYEDTKRLSGIPERFSGSNSGNTATLTISGTQAMDEADYYCQAWDTSFWVFGGGTKLTVL
B2: C2: combinatorial library clone of CD730010 GL9; VL SEQ ID NO: 61, VH SEQ ID NO: 75 (antibody, V domains shown)
VH: EVQLLESGGGLVQPGGSLRLSCAASGFTFSSYAYSWVRQAPGKGLEWVSLIWGSWGSTYYADSVKGRFTISRDNSKNTLYLQMNSLRAEDTAVYYCARLGYSTIDMWGRGTLVTVSS
VL: QSVLTQPPSASGTPGQRVTISCSGSLSNIGRNPVNWYQQLPGTAPKLLIYLDNLRLGGVPDRFSGSKSGTSASLAISGLQSEDEADYYCATWDDSLKGWLFGGGTKLTVL
B3: D3: combinatorial library clone of CD730010 GL9; VL SEQ ID NO: 62, VH SEQ ID NO: 76 (antibody, V domains shown)
VH: B2 VH with L50A, W52S, W55G, S57R, M106L
VL: B2 VL with G57S, K97I
B4: G10: combinatorial library clone of CD730010 GL9; VL SEQ ID NO: 63, VH SEQ ID NO: 77 (antibody, V domains shown)
VH: B2 VH with L50A, W52S, S57R, M106L
VL: B2 VL with P33D, D52N, L54Q

Key:
[1] = biological target: T1, native CD73, MDA-MB-231 cells; assay: Flow cytometry binding to native CD73, MDA-MB-231 cells; conditions: as measured by flow cytometry; read-out: KD, CD73 on the surface of MB-MDA-231 cells
Description: (§1) Binding of MEDI9447 to native CD73 expressed on human, murine, and cynomolgus monkey cell lines was characterized by flow cytometry. The cells were incubated with various concentrations of MEDI9447 and antibody binding was monitored with and fluorophore-labeled anti-human Fc antibody. A plot of the median fluorescence intensity as a function of the MEDI9447 concentration was fitted nonlinearly using a one-site binding isotherm model to calculate the equilibrium dissociation constant.
(§2) The affinity of enhanced anti-CD73 antibodies (in IgG1-TM format) to human, murine, and cynomolgus CD73 was determined by flow cytometry and surface plasmon resonsance (SPR) (Table 13). The enhanced antibodies had pM affinity to cellular and recombinant CD73 from the three species.
(§3) All flow cytometry experiments were run at 4C and reagents were prepared in PBS/1% FBS buffer. 10,000 cells were incubated with test antibody in 50 uL volume for 4 hours. Cells were washed twice and incubated in 50 uL goat anti-human IgGFc-AlexaFluor647 conjugate for 15 minutes. Cells were washed, resuspended in buffer supplemented with Dapi, and analyzed on a flow cytometer. […] For the determination of KD values, a plot of the median fluorescence intensity as a function of test antibody concentration was fitted nonlinearly using a one site binding isotherm model.

native CD73, MK-1 cells = assay: Flow cytometry binding to native CD73, MK-1 cells; conditions: as measured by flow cytometry; read-out: KD, CD73 on the surface of cynomolgus MK-1 cells
Description: as §1, §2, §3

huCD73 [2] = biological target: T2, huCD73; assay: Solution binding, human CD73; conditions: as measured by solution binding
murine CD73 = biological target: T3, murine CD73; assay: Solution binding, murine CD73; conditions: as measured by solution binding
cynomolgus CD73 = assay: Solution binding, cynomolgus CD73; conditions: as measured by solution binding
huCD73 [3] = biological target: T2, huCD73; assay: ELISA binding of Fab variants to human CD73; conditions: combinatorial Fab library clones, capture ELISA and direct ELISA
Source text: (§4) CD730010GL9 IgG1-TM was enhanced by screening Fab libraries comprising variant CDR sequences with single amino acid mutations. Each of the 61 positions in the six CDRs was individually randomized to 19 amino acids (all natural amino acids except Cysteine), generating a library with a theoretical diversity of 1159 unique clones (19 amino acids per position times 61 positions). Bacterial Fab fragments were produced from 4224 clones of the library and screened for binding to human and murine CD73 protein by capture ELISA (Assay 2). 180 clones with increased binding signal compared to parental CD730010 GL9 IgG1-TM were selected and the mutations in the VH or VL domain were identified by DNA sequencing. The Fab concentration in the bacterial supernatants was normalized and the binding of the normalized supernatants to human and murine CD73 protein was evaluated by direct ELISA (Assay 1). Table 11 lists selected beneficial single amino acid substitutions and their effect on binding to recombinant CD73 protein.
(§5) To further improve the affinity of the anti-CD73 antibody, several single amino acid changes which improved binding when compared to parental CD730010 GL9 were combined to create a combinatorial Fab library (Assay 4). Fab fragments of 4224 clones of the combinatorial library were produced in E. coli and screened for binding to human and murine CD73 protein by capture ELISA. […]
(§6) 384-well ELISA plates were coated with about 1.5 ng/well recombinant CD73 protein, blocked with 1% BSA/0.1% Tween20/PBS and incubating with antibody samples for 90 minutes at room temperature. […] HRP activity was detected with tetra methyl benzidine (TMB) substrate and the reaction was stopped with 1 M HCl. Plates were read at 450 nm.
as §6, with “3” for “1.5”, “sheep-anti-human Fd antibody (for screening antibodies in Fab format),” for “recombinant CD73 protein,”, “with” for “with antibody”

muCD73 = biological target: T4, muCD73; assay: ELISA binding of Fab variants to murine CD73; conditions: combinatorial Fab library clones, capture ELISA and direct ELISA
Source text: as §4, §5, §6
as §6, with “3” for “1.5”, “sheep-anti-human Fd antibody (for screening antibodies in Fab format),” for “recombinant CD73 protein,”, “with” for “with antibody”

| Molecule | Kd [1] [nM] | Kd (native CD73, MK-1 cells) [nM] | Kd (huCD73 [2]) [nM] | Kd (murine CD73) [nM] | Kd (cynomolgus CD73) [nM] | binding to human CD73 (huCD73 [3]) | binding to murine CD73 (muCD73) |
| --- | --- | --- | --- | --- | --- | --- | --- |
| B1 | ~0.08 | ~0.06 | ~0.08 | ~1.5 | ~0.1 | – | – |
| B2 | – | – | – | – | – | strong binding | strong binding |
| B3 | – | – | – | – | – | strong binding | strong binding |
| B4 | – | – | – | – | – | strong binding | strong binding |
